Each block holds one binder with its values, some of them ahead of it.
What was measured:
[1] = molecular target: T1, CD3 on the surface of human T cells (human, UniProt P07766 23-207); assay: flow cytometry on primary human T cells, anti-human IgG APC secondary
T1 construct: whole, on cells; Part of the CD3/TCR complex on cells; also called CD3 epsilon
Experimental: (§1) Binding of exemplary B7H3-targeting constrained CD3 engaging constructs set forth in Table E3 to CD3 on the surface of primary T cells or B7H3-expressing cells (A375) was assessed by flow cytometry. The T cells were primary T-cells that were negatively enriched from PBMCs isolated from healthy human donor peripheral blood leukopaks. Bound construct was detected with fluorophore-conjugated secondary antibodies specific for the human Fc (anti-human IgG APC secondary antibody) and binding was measured by flow cytometry. Cells incubated with secondary antibody only served as negative controls. Binding was compared to Dual-affinity Re-targeting Antibody (DART)-monomeric Fc format targeting B7H3 and CD3 (DART-Fc B7H3xCD3; see e.g. WO2017030926A1).

[2] = molecular target: T2, human B7H3 (CD276) on the cell surface (human, UniProt Q5ZPR3 29-534); assay: flow cytometry on A375 cells (B7H3+), anti-human IgG APC secondary
T2 construct: B7H3 on A375 and other B7H3-positive or transfected cells
T2 sequence: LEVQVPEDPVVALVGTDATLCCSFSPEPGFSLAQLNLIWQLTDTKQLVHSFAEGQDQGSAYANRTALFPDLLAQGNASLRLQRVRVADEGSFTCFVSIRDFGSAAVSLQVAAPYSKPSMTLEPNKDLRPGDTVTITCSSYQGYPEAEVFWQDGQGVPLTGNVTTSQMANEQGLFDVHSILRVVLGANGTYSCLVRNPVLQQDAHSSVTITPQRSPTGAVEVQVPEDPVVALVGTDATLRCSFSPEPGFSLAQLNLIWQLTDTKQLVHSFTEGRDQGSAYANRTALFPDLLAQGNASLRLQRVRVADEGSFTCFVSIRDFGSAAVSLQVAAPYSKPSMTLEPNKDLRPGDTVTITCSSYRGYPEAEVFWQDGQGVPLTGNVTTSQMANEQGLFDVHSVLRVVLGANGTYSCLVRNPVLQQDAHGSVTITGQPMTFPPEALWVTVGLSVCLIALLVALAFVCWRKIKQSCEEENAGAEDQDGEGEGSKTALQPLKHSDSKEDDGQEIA
Experimental: as §1

T1 sequence (P07766 23-207): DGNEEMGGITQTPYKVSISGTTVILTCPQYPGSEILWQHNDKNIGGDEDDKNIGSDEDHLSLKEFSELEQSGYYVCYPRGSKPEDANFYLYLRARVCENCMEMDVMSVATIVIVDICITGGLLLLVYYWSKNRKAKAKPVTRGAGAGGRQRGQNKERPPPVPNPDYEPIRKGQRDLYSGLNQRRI

binding result [1]: no binding (tested: 200 nM)
B1: cx2846 (bispecific antibody, not shown: a dimerising Fc or GST)
chain 1: EVQLVESGGGEVQPGGSLRLSCAASGSTFSSYHMSWFRQAPGKQREPVATSHHGGTTNYAGSVKGRFTISRDNAKNTVYLQMNTLRAEDTAVYYCKADHGYQGRGYWGQGTLVTVKPGGSGGGGIEPDIGGSGGSEVQLVESGGGLVQPGGSLRLSCAASGFTFNTYAMNWVRQAPGKCLEWVARIRSKYNNYATYYADSVKGRFTISRDDAKNTLYLQMSSLRAEDTAVYYCVRHGNFGNSYVSWFAYWGQGTLVTVKPEVQLVESGGGEVQPGGSLRLSCAPSERTFSTYTMGWFRQAPGKEREFVAVVNWGGGSKYYAESVKGRFTISRDNAKNTVYLQMSSLRAEDTAVYYCAAGGAYSGPYYDTRQYTYWGQGTLVTVKP
chain 2: GGSGGGGIEPDIGGSGGSQAVVTQEPSLTVSPGGTVTLTCGSSTGAVTTSNYANWVQQKPGQAFRGLIGGTNKRAPGVPARFSGSLLGGKAALTISGAQPEDEADYYCALWYSNHWVFGCGTKLTVL

binding result [1]: no binding (tested: 200 nM)
B2: cx3960 (bispecific antibody, not shown: a dimerising Fc or GST)
chain 1: EVQLVESGGGEVQPGGSLRLSCAASGSTFSSYHMSWFRQAPGKQREPVATSHHGGTTNYAGSVKGRFTISRDNAKNTVYLQMNTLRAEDTAVYYCKADHGYQGRGYWGQGTLVTVKPGGSGGGGIEPDIGGSGGSEVQLVESGGGLVQPGGSLRLSCAASGFTFNTYAMNWVRQAPGKCLEWVARIRSKYNNYATYYADSVKGRFTISRDDAKNTLYLQMSSLRAEDTAVYYCVRHGNFGNSYVSWFAYWGQGTLVTVKPQLQLQESGGGLVQAGDSLRLSCAASGFSFGSNVMMWVRQAPGKGPEWVSTIYSSGTGTFYADSVKGRFTISRNNAKNTLYLQMNSLKPDDTAVYYCATSGPVRGWGPRSQGTLVTVKP
chain 2: B1 chain 2

binding result [1]: no binding (tested: 200 nM)
B3: cx4908 (bispecific antibody)
chain 1: EVQLVESGGGEVQPGGSLRLSCAASGSTFSSYHMSWFRQAPGKQREPVATSHHGGTTNYAGSVKGRFTISRDNAKNTVYLQMNTLRAEDTAVYYCKADHGYQGRGYWGQGTLVTVKPDKTHTCPPCPAPGGPSVFLFPPKPKDTLMISRTPEVTCVVVDVSHEDPEVKFNWYVDGVEVHNAKTKPREEQYNSTYRVVSVLTVLHQDWLNGKEYKCKVSNKALPAPIEKTISKAKGQPREPQVYTLPPCRDELTKNQVSLWCLVKGFYPSDIAVEWESNGQPENNYKTTPPVLDSDGSFFLYSKLTVDKSRWQQGNVFSCSVMHEALHNHYTQKSLSLSPTGGSGGGGIEPDIGGSGGSEVQLVESGGGLVQPGGSLRLSCAASGFTFNTYAMNWVRQAPGKCLEWVARIRSKYNNYATYYADSVKGRFTISRDDAKNTLYLQMSSLRAEDTAVYYCVRHGNFGNSYVSWFAYWGQGTLVTVKPEVQLVESGGGEVQPGGSLRLSCAASGFSFGSNVMMWVRQAPGKGPEWVSTIYSSGTGTFYAESVKGRFTISRDNAKNTLYLQMSSLRAEDTAVYYCATSGPVRGWGPWSQGTLVTVKP
chain 2: DKTHTCPPCPAPGGPSVFLFPPKPKDTLMISRTPEVTCVVVDVSHEDPEVKFNWYVDGVEVHNAKTKPREEQYNSTYRVVSVLTVLHQDWLNGKEYKCKVSNKALPAPIEKTISKAKGQPREPQVCTLPPSRDELTKNQVSLSCAVKGFYPSDIAVEWESNGQPENNYKTTPPVLDSDGSFFLVSKLTVDKSRWQQGNVFSCSVMHEALHNRYTQKSLSLSPTGGSGGGGIEPDIGGSGGSQAVVTQEPSLTVSPGGTVTLTCGSSTGAVTTSNYANWVQQKPGQAFRGLIGGTNKRAPGVPARFSGSLLGGKAALTISGAQPEDEADYYCALWYSNHWVFGCGTKLTVLEVQLLESGGGEVQPGGSLRLSCAASGFSFSINAMGWYRQAPGKRREFVAAIESGRNTVYAESVKGRFTISRDNAKNTVYLQMSSLRAEDTAVYYCGLLKGNRVVSPSVAYWGQGTLVTVKP
notes: chain 2 ends in the 4-1BB sdAb RH3v5-1

binding result [2]: binds
B4: DART-Fc B7H3xCD3 (bispecific antibody)
chain 1: DIQLTQSPSFLSASVGDRVTITCKASQNVDTNVAWYQQKPGKAPKALIYSASYRYSGVPSRFSGSGSGTDFTLTISSLQPEDFATYYCQQYNNYPFTFGQGTKLEIKGGGSGGGGEVQLVESGGGLVQPGGSLRLSCAASGFTFSTYAMNWVRQAPGKGLEWVGRIRSKYNNYATYYADSVKDRFTISRDDSKNSLYLQMNSLKTEDTAVYYCVRHGNFGNSYVSWFAYWGQGTLVTVSSGGCGGGEVAALEKEVAALEKEVAALEKEVAALEKGGGDKTHTCPPCPAPEAAGGPSVFLFPPKPKDTLMISRTPEVTCVVVDVSHEDPEVKFNWYVDGVEVHNAKTKPREEQYNSTYRVVSVLTVLHQDWLNGKEYKCKVSNKALPAPIEKTISKAKGQPREPQVYTLPPSREEMTKNQVSLWCLVKGFYPSDIAVEWESNGQPENNYKTTPPVLDSDGSFFLYSKLTVDKSRWQQGNVFSCSVMHEALHNHYTQKSLSLSPGK
chain 2: QAVVTQEPSLTVSPGGTVTLTCRSSTGAVTTSNYANWVQQKPGQAPRGLIGGTNKRAPWTPARFSGSLLGGKAALTITGAQAEDEADYYCALWYSNLWVFGGGTKLTVLGGGGSGGGGEVQLVESGGGLVQPGGSLRLSCAASGFTFSSFGMHWVRQAPGKGLEWVAYISSDSSAIYYADTVKGRFTISRDNAKNSLYLQMNSLRDEDTAVYYCGRGRENIYYGSRLDYWGQGTTVTVSSGGCGGGKVAALKEKVAALKEKVAALKEKVAALKE
chain 3: not shown
notes: Comparator, an analog of the format of WO2017030926A1; three polypeptide chains; also called B7H3xCD3 DART-Fc
